Measurements: patent US20090192289A1 (Genentech, published 2009)
Where no end group is shown, it is not given here. The star is where a group is joined. Biotin = O=C1N[C@H]2[C@H](CS[C@H]2CCCCC(=O)*)N1

B1: biotin-SWTMFWV (peptide)
peptide: Biotin-SWTMFWV
notes: Immobilized on NeutrAvidin-coated plates for shotgun library sorting

Experiments:
[1] = target: T1, phage-displayed Omi PDZ (phagemid p8hOmi) (human; M13 bacteriophage); assay: phage selection and phage ELISA on NeutrAvidin-immobilized peptide
T1 construct: Multivalent display on phage; not shown: M13 gene-8 coat protein
T1 chain: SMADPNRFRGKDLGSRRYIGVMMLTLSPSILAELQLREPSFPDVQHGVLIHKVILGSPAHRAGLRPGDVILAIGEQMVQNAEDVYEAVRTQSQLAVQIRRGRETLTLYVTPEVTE
Experimental: Library Sorting and Analysis—Phage from the libraries described above were propagated in E. coli XL1-blue with the addition of KO7 helper phage. After overnight growth at 37° C. (for peptide library) or 30° C. (for shotgun library), phage were concentrated by precipitation with PEG/NaCl and resuspended in PBS, 0.5% BSA, 0.1% Tween 20, as described previously(19). Phage solutions (10¹² phage/mL) were added to 96-well maxisorp immunoplates that had been coated with capture target and blocked with BSA. For shotgun library sorting, two different targets were used; for the display selection the target was an immobilized antibody that recognized the epitope tag fused to the N terminus of Omi PDZ, while for the function selection a biotinylated peptide that binds to Omi PDZ with high affinity (biotin-SWTMFWV) was immobilized on NeutrAvidin-coated plates. Following a 2 h incubation to allow for phage binding, the plates were washed 10 times with PBS, 0.05% Tween 20. Bound phage were eluted with 0.1 M HCl for 10 min and the eluent was neutralized with 1.0 M Tris base. Eluted phage were amplified in E. Coli XL1-blue and used for further rounds of selection.
Shotgun alanine-scanning of Omi PDZ domain—By superimposing the structure of Omi PDZ with the structure of Erbin PDZ-ligand complex(20), we identified a region that is directly involved or adjacent to the peptide binding site. […]

[2] = target: T2, GST-Omi PDZ fusion protein (human, UniProt O43464 359-458); assay: competition ELISA, immobilized biotin-GWTMFWV
T2 construct: also called GST-hOmiPDZ; hOmi PDZ domain; not shown: glutathione S-transferase (GST) encoded by plasmid pGEX6P-3
T2 sequence: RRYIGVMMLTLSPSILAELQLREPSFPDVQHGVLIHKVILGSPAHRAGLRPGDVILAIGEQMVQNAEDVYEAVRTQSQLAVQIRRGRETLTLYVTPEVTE
Experimental: Affinity Assays—The binding affinities of peptides for Omi PDZ were determined as IC₅₀ values using a previously described competition ELISA(18). The IC₅₀ value was defined as the concentration of peptide that blocked 50% of PDZ domain binding to immobilized peptide. Assay plates were prepared by immobilizing an amino-terminally biotinylated peptide (biotin-GWTMFWV) on maxisorp plates coated with NeuTravidin and blocked with BSA. A fixed concentration of GST-Omi PDZ fusion protein (20 nM) in PBS, 0.5% BSA, 0.1% Tween 20 (PBT buffer) was preincubated for 1 h with serial dilutions of peptide and then transferred to the assay plates. After 1 h incubation, the plates were washed with PBS, 0.05% Tween 20, incubated for 30 min with HRP/anti-GST antibody (1:10,000) in PBT buffer, washed again, and detected with 3,3′,5,5′-Tetramethyl-benzidine/H₂O₂ (TMB) peroxidase substrate.

Binder | binding result [1] | binding result [2]
B1 | binds | 
H-SHWWG-NH2 (also called SHWWG) [hOmi_n1_t4] |  | no binding
H-WWGGWLG-NH2 (also called WWGGWLG) [hOmi_n1_t7] |  | no binding
H-WGGWLG-NH2 (also called WGGWLG) [hOmi_n1_t8] |  | no binding
